# Measured values as given in patent publication US20070092444A1, “Inhibition of inward sodium currents in cancer” (priority 2003, published 2007).
# Key:
# [1] = target: T1, ASIC1 (recombinant: in vitro translated in proteoliposomes, expressed in Xenopus oocytes, reconstituted in planar lipid bilayers) (UniProt P78348)
# T1 sequence: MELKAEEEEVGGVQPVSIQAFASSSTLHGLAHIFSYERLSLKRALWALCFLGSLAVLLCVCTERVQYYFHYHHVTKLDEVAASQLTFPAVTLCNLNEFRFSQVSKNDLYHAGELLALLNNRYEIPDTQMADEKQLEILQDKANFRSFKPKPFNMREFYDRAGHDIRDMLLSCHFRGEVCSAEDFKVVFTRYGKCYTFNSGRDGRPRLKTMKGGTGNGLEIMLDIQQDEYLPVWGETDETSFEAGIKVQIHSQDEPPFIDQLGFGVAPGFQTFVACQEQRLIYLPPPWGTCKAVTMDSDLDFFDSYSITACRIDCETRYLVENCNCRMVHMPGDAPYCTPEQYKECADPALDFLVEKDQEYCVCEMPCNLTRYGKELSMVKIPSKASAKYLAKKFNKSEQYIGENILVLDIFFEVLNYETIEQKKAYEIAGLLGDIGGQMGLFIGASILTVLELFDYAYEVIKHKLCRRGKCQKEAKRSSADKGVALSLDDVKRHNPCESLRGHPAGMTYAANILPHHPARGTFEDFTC
# [2] = test system: inward Na^+ currents in SK-MG cells; test: Whole-cell patch clamp, SK-MG glioma cells; assay type: cell-based, human; settings: 10 nM peptide
# Method: FIGS. 7A-7C show representative whole-cell patch clamp recordings.
# The amiloride-sensitive inward Na^+ currents are measured regardless of whether ASIC2 is absent or present (FIGS. 7A-D). Whole-cell patch clamp recordings were obtained from U87-MG, SK-MG, and D54-MG glioma cells in the basal state. […] This inhibition of the inward current occurred regardless of the absence or presence of ASIC2 mRNA (FIG. 7D) (as detected by RT-PCR as described above).
# (§1) FIG. 19A show representative whole-cell patch clamp recordings of ZR-75-1 and SKMEL-2 cells in the basal state.
# D54-MG glioma cells = test: Transwell Migration Assay, D54-MG cells; assay type: cell-based, human; settings: 3 h, vitronectin
# Method: 5-8 μm polycarbonate Transwell filters were coated on the lower surface with or vitronectin ([…] in PBS). […] of D54MG cells (400,000 cells/ml were added to the upper chamber), in the presence or absence of benzamil, and migration was allowed to proceed for 3 hours. Migration was determined according to standard procedures (120). N-amidino-3,5-diamino-pyrazinecarboxamide was used as a control.
# To begin to investigate the role of the inward Na^+ conductance in the invasive behavior of tumor cells, a Transwell Migration Assay was used to assess cell chemotaxis and invasiveness (FIG. 17). D54-MG cells were plated on the upper side of a filter insert perforated with 5-8 μm holes, and induced to migrate through these pores toward the extracellular matrix protein vitronectin (coated on the underside of the filter). Benzamil, at 10, 20, 50, or 100 μM, was added to both chambers at time 0. After a 3 h migration time, cells were fixed, stained with crystal violet, and counted. BSA-coated filter inserts were used as negative controls. […]
# Approximately 10,000 cells were added to the upper side of a filter insert perforated with 5-8 μm holes, and induced to migrate through these pores toward the extracellular matrix protein vitronectin (coated on the underside of the filter). […] Cells were counted on an inverted microscope, averaging five fields per Transwell chamber. […]
# primary GBM cultures = test: Transwell Migration Assay, primary GBM cultures; assay type: cell-based, human; settings: 3 h, vitronectin
# Method: Approximately 10,000 cells were added to the upper side of a filter insert perforated with 5-8 μm holes, and induced to migrate through these pores toward the extracellular matrix protein vitronectin (coated on the underside of the filter). PcTX1 or control scrambled PcTX1 peptide was added to each compartment at the same time as the cells. BSA-coated filter inserts were used as negative controls. After 3 h, cells were fixed with 4% paraformaldehyde, and subsequently stained with crystal violet. Cells were counted on an inverted microscope, averaging five fields per Transwell chamber. Four-to-ten chambers were used under each condition.
# [3] = test system: constitutive amiloride-sensitive inward Na^+ current in high-grade glioma (GBM) cells; test: Whole-cell patch clamp, freshly resected and primary cultured high-grade glioma (Grade III/IV, GBM) cells; assay type: cell-based, human; settings: 10 nM peptide; freshly resected GBM
# Excerpt: FIGS. 2A-C show representative whole-cell patch clamp recordings.
# FIGS. 4A and B show summary I-V curves of freshly resected normal astrocytes (FIG. 4A) and GBM cells (FIG. 4B). Inward currents (−60 mV) were −7.5±1.2 pA (normal) and −43.8±14.5 pA (GBM). Outward currents (+40 mV) averaged 42.2±2.4 pA and 47.2±12.5 pA for normal and GBMs, respectively. FIGS. 4C and D show summary amiloride-sensitive (difference) currents of freshly resected normal astrocytes (FIG. 4C) and GBM cells (FIG. 4D).
# A constitutive amiloride-sensitive inward Na^+ conductance has been reported in human high-grade glioma cells. […] These inward Na^+ currents were not present in normal astrocytes or in low-grade astrocytomas (e.g., pilocytic astrocytomas). However, the composition of the channels responsible for the inward Na^+ conductance has not been reported. FIGS. 2A-C show representative whole cell patch-clamp measurements on tissue derived from a freshly resected human glioblastoma multiforme (GBM; WHO grade IV), normal astrocytes obtained from patients undergoing surgery for intractable epilepsy, and primary cultures of different grade glial tumors. […] However, there was no significant inward Na^+ current in normal astrocytes and Grades I and II astrocytoma cells (FIG. 2C).
# Summary current-voltage (I-V) curves are presented for normal astrocytes and GBM cells in FIG. 4A and FIG. 4B, respectively, while difference I-V curves for normal astrocytes and GBM cells are presented in FIG. 4C and FIG. 4D, respectively. The GBM cells are depolarized by an average of 31 mV compared to the normal astrocytes under these recording conditions. The depolarized zero current membrane potential is due to the presence of an enhanced Na^+ conductance as is shown in the difference I-V curves.
# as §1
# U87-MG cells = test: Transwell Migration Assay, U87-MG cells; assay type: cell-based, human; settings: 3 h, vitronectin
# ASIC1 = target: T2, ASIC1 (Homo sapiens, UniProt P78348); test: Acid-activated currents in voltage-clamped Xenopus oocytes expressing ASIC1; assay type: cell-based; settings: 1 nM peptide (FIG. 20); pHo 4.0; −60 mV
# T2 sequence (P78348 1-528): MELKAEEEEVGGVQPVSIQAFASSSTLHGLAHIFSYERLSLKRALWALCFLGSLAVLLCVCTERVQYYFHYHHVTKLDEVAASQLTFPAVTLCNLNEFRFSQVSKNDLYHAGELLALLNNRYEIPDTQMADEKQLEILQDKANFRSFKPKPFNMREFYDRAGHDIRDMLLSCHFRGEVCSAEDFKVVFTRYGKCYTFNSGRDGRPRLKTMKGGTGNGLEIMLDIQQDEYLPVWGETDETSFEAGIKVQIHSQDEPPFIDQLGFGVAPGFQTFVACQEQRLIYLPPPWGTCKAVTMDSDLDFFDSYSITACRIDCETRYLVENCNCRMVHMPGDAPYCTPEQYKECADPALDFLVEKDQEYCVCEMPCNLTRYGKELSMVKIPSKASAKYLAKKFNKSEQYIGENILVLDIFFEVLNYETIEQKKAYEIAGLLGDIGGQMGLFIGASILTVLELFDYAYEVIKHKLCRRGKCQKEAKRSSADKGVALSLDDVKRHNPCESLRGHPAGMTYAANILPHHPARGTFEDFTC
# Excerpt: FIGS. 8A-C show acid-activated ASIC currents in Xenopus oocytes. ASIC 2 (FIG. 8A), ASIC1 (FIG. 8B) and the combination of ASIC2 and ASIC1 (FIG. 8C) were examined. […] Each oocyte served as its own control.
# (§2) Membrane potential was held at −60 mV, and the pHo was step decreased to 4.0 for 10 s, and then returned to 7.4 for 30 s before repeating the sequence.
# Xenopus oocytes were used to express ASIC1 and ASIC2 mRNA individually and in combination. Oocyte preparation, cRNA injection, and two-electrode voltage clamp recordings were performed as described (33,67-69).
# as §2
# [4] = target: T1, ASIC1 (recombinant: in vitro translated in proteoliposomes, expressed in Xenopus oocytes, reconstituted in planar lipid bilayers); test: cell-based or functional assay
substance,measurement,setting,value
PKCε,ASIC1 activity in planar lipid bilayers,[1],"Neither PKCε, PKCζ, nor their combination had any effect on ASIC1 activity in bilayers."
same,in vitro phosphorylation of ASIC1,[1],"PKC holoenzyme, PKCβI, PKCβII, PKCδ, PKCε, and PKCζ phosphorylated ASIC1 in vitro."
scrambled PcTX1 control peptide: 40mer scrambled control peptide having the same amino acid content as PcTX1; SEQ ID NO: 3 (VLEPCKWGFRTCKGEDINCPKVWTRERSKCDCEVKRCHGP; control peptide),block of constitutive inward Na^+ current,[2],unaffected
same,diminished ability to migrate through the filter,D54-MG glioma cells,without effect
same,diminished ability to migrate through the filter,primary GBM cultures,without effect
same,block of constitutive inward Na^+ current,[3],unaffected
same,diminished ability to migrate through the filter,U87-MG cells,without effect
same,block of acid-induced inward currents,ASIC1,without effect
PKC holoenzyme,ASIC1 activity in planar lipid bilayers,[1],PKC holoenzyme or the combination of PKCβI and PKCβII isoforms inhibited ASIC1.
same,in vitro phosphorylation of ASIC1,[1],"PKC holoenzyme, PKCβI, PKCβII, PKCδ, PKCε, and PKCζ phosphorylated ASIC1 in vitro."
PKCδ,in vitro phosphorylation of ASIC1,[1],"PKC holoenzyme, PKCβI, PKCβII, PKCδ, PKCε, and PKCζ phosphorylated ASIC1 in vitro."
PKCε (enzyme),reversal of the PKCβI+PKCβII inhibition of ASIC1 activity in bilayers (PKCε and PKCζ in combination),[4],5 fold excess
